Source: article PMC2138200
Several values for one entry are separate records, joined by “and”; a condition that tells them apart may be missing. Identical values can stand only once.

Molecular target: p53, Gal4 fusion of the two-hybrid control plasmid pM53
Experiment: two-hybrid

Q: For “SV-40 large T, VP16 fusion of the two-hybrid control plasmid pV-T (natural protein)”, which CAT protein of the two-hybrid reporter is on record?
A: The CAT protein of the two-hybrid reporter was 186 pg and 251 pg.
